# Reference: US20030161809A1 (published 2003)
# T1: GST-Cyn monkey-stalk fusion protein (Schistosoma japonica; cynomolgus monkey)
# T1 construct: also called D6 cyno; Cyno; not shown: GST (Schistosoma japonicum, from pGEX-2TK) and its linker before the GS
# T1 chain: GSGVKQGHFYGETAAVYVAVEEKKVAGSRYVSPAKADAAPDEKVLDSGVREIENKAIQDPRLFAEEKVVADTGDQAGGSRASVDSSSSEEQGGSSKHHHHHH
# T2: GST-Rat-stalk fusion protein (Schistosoma japonica; rat, UniProt P15083 535-643)
# T2 construct: domain: stalk; About 39.3 kD, no 6xHis tag; also called [GST]-[rat domain 6] fusion protein; D6 rat; not shown: glutathione-S-transferase from Schistosoma japonica, from vector pGEX-2TK
# T2 sequence (looked up): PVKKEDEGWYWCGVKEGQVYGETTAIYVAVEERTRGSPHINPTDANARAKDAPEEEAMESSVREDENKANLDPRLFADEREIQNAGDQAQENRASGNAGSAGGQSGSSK
# Legend:
# [1] = target: T1, GST-Cyn monkey-stalk fusion protein; test: SPR (Biacore), D6-GST captured on anti-GST antibody, global fit
# [2] = target: T2, GST-Rat-stalk fusion protein; test: as above
# [3] = target: T3, GST-Human-stalk fusion protein (Schistosoma japonica; human, UniProt P01833 550-638); test: as above
# T3 construct: domain: stalk; About 37.8 kD; also called D6 human; human pIgR Domain 6 GST (D6-GST) fusion protein; not shown: glutathione-S-transferase from Schistosoma japonica, from vector pGEX-2TK
# T3 sequence (P01833 550-638, tags left off): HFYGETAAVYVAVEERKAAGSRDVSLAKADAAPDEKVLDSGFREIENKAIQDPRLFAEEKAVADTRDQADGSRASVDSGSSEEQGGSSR
# [4] = target: pIgR Domain 6 GST (D6-GST) fusion protein, species not named; test: SPR (Biacore), 1:1 Langmuir model; ligand not given
# [5] = target: pIgR expressed on transfected MDCK cells; test: cell-based or functional assay
# [6] = target: T1, GST-Cyn monkey-stalk fusion protein; test: SPR (Biacore), D6-GST captured on anti-GST antibody, 1:1 Langmuir global fit
# [7] = target: T2, GST-Rat-stalk fusion protein; test: as above
# [8] = target: T3, GST-Human-stalk fusion protein; test: as above
# [9] = target: T1, GST-Cyn monkey-stalk fusion protein; test: SPR (Biacore), D6-GST captured on anti-GST antibody
# [10] = target: T2, GST-Rat-stalk fusion protein; test: as above
# [11] = target: T3, GST-Human-stalk fusion protein; test: as above
Binder,Ka [1],Kd [1],koff [1],kon [1],Ka [2],Kd [2],koff [2],kon [2],Ka [3],Kd [3],koff [3],kon [3],Ka [4],Kd [4],koff [4],kon [4],Ka [6],Kd [6],koff [6],kon [6],other results
"[monomer sFv5AF-Cys]-SPDP-[15 kD protein] conjugate without c-myc tag (Az018b) (other, also called Az0018b; not shown: the 15 kD protein (never identified); the exact point where the c-myc/His tail was lost) scFv: DYKAKQVQLVQSGGGVVQPGRSLRLSCAASGFTFSSYAMHWVRQAPGKGLEWVSAISGSGGSTYYADSVKGRFTISRDNAKNSLYLQMNSLRAEDTAVYYCARDTRGYFDLWGRGTLVTVSSGGGGSGGGGSGGGGSSELTQDPAMSVALGQTVRITCQGDSLRKYHASWYQQRPRQAPRLVVYGKNERPSGIPERFSGSTSGDTASLTISGLQAEDEADYYCHSRDSNADLVVFGGGTKVTVLGGGGGSC",9.5e+06 M⁻¹,105 nM,0.00557 s⁻¹,52900 M⁻¹ s⁻¹,1.28e+07 M⁻¹,77.9 nM,0.00385 s⁻¹,49400 M⁻¹ s⁻¹,9.3e+06 M⁻¹,107 nM,0.00465 s⁻¹,43200 M⁻¹ s⁻¹,,,,,,,,,
single chain antibody sFv5AF (scFv) scFv: DYKAKQVQLVQSGGGVVQPGRSLRLSCAASGFTFSSYAMHWVRQAPGKGLEWVSAISGSGGSTYYADSVKGRFTISRDNAKNSLYLQMNSLRAEDTAVYYCARDTRGYFDLWGRGTLVTVSSGGGGSGGGGSGGGGSSELTQDPAMSVALGQTVRITCQGDSLRKYHASWYQQRPRQAPRLVVYGKNERPSGIPERFSGSTSGDTASLTISGLQAEDEADYYCHSRDSNADLVVFGGGTKVTVLGAAAEQKLISEEDLNGAAHHHHHH,,,,,,,,,,,,,4.47e+06 M⁻¹,224 nM,0.00464 s⁻¹,27100 M⁻¹ s⁻¹,,,,,"percent transcytosis, pIgR expressing MDCK cells, overnight [5]: 2%"
"sFv5AF-Cys (starting material, mixture of monomer and dimer) (scFv, also called s5AF-Cys) scFv: DYKAKQVQLVQSGGGVVQPGRSLRLSCAASGFTFSSYAMHWVRQAPGKGLEWVSAISGSGGSTYYADSVKGRFTISRDNAKNSLYLQMNSLRAEDTAVYYCARDTRGYFDLWGRGTLVTVSSGGGGSGGGGSGGGGSSELTQDPAMSVALGQTVRITCQGDSLRKYHASWYQQRPRQAPRLVVYGKNERPSGIPERFSGSTSGDTASLTISGLQAEDEADYYCHSRDSNADLVVFGGGTKVTVLGGGGGSCAAAEQKLISEEDLNGAAHHHHHH",,,,,,,,,,,,,9.84e+06 M⁻¹,102 nM,0.00464 s⁻¹,37600 M⁻¹ s⁻¹,7.7e+08 M⁻¹,1.3 nM,0.00137 s⁻¹,1.06e+06 M⁻¹ s⁻¹,Ka [7]: 4.36e+08 M⁻¹; Kd [7]: 2.3 nM; koff [7]: 0.00282 s⁻¹; kon [7]: 1.23e+06 M⁻¹ s⁻¹; Ka [8]: 6.71e+08 M⁻¹; Kd [8]: 1.49 nM; koff [8]: 0.00145 s⁻¹; kon [8]: 976000 M⁻¹ s⁻¹
"[dimer sFv5AF-Cys]-SPDP-[15 kD protein] conjugate (Az019) (other, also called AzO19; Az0019) scFv 1: DYKAKQVQLVQSGGGVVQPGRSLRLSCAASGFTFSSYAMHWVRQAPGKGLEWVSAISGSGGSTYYADSVKGRFTISRDNAKNSLYLQMNSLRAEDTAVYYCARDTRGYFDLWGRGTLVTVSSGGGGSGGGGSGGGGSSELTQDPAMSVALGQTVRITCQGDSLRKYHASWYQQRPRQAPRLVVYGKNERPSGIPERFSGSTSGDTASLTISGLQAEDEADYYCHSRDSNADLVVFGGGTKVTVLGGGGGSCAAAEQKLISEEDLNGAAHHHHHH scFv 2: DYKAKQVQLVQSGGGVVQPGRSLRLSCAASGFTFSSYAMHWVRQAPGKGLEWVSAISGSGGSTYYADSVKGRFTISRDNAKNSLYLQMNSLRAEDTAVYYCARDTRGYFDLWGRGTLVTVSSGGGGSGGGGSGGGGSSELTQDPAMSVALGQTVRITCQGDSLRKYHASWYQQRPRQAPRLVVYGKNERPSGIPERFSGSTSGDTASLTISGLQAEDEADYYCHSRDSNADLVVFGGGTKVTVLGGGGGSCAAAEQKLISEEDLNGAAHHHHHH",1.52e+08 M⁻¹,6.57 nM,0.00108 s⁻¹,164000 M⁻¹ s⁻¹,1.06e+08 M⁻¹,9.39 nM,0.00196 s⁻¹,209000 M⁻¹ s⁻¹,1.39e+08 M⁻¹,7.18 nM,0.00109 s⁻¹,152000 M⁻¹ s⁻¹,,,,,,,,,
"purified monomer sFv5AF-Cys (scFv, also called 5Afcys Monomer; sFv5AF-Cys monomer) scFv: DYKAKQVQLVQSGGGVVQPGRSLRLSCAASGFTFSSYAMHWVRQAPGKGLEWVSAISGSGGSTYYADSVKGRFTISRDNAKNSLYLQMNSLRAEDTAVYYCARDTRGYFDLWGRGTLVTVSSGGGGSGGGGSGGGGSSELTQDPAMSVALGQTVRITCQGDSLRKYHASWYQQRPRQAPRLVVYGKNERPSGIPERFSGSTSGDTASLTISGLQAEDEADYYCHSRDSNADLVVFGGGTKVTVLGGGGGSCAAAEQKLISEEDLNGAAHHHHHH",,,,,,,,,,,,,,,,,1.73e+08 M⁻¹,5.77 nM,0.00256 s⁻¹,443000 M⁻¹ s⁻¹,Ka [7]: 1.77e+08 M⁻¹; Kd [7]: 5.63 nM; koff [7]: 0.00303 s⁻¹; kon [7]: 538000 M⁻¹ s⁻¹; Ka [8]: 1.77e+08 M⁻¹; Kd [8]: 5.64 nM; koff [8]: 0.00241 s⁻¹; kon [8]: 428000 M⁻¹ s⁻¹
[monomer sFv5AF-Cys]-SPDP-[15 kD protein] conjugate with c-myc tag (Az018a) (other) scFv: DYKAKQVQLVQSGGGVVQPGRSLRLSCAASGFTFSSYAMHWVRQAPGKGLEWVSAISGSGGSTYYADSVKGRFTISRDNAKNSLYLQMNSLRAEDTAVYYCARDTRGYFDLWGRGTLVTVSSGGGGSGGGGSGGGGSSELTQDPAMSVALGQTVRITCQGDSLRKYHASWYQQRPRQAPRLVVYGKNERPSGIPERFSGSTSGDTASLTISGLQAEDEADYYCHSRDSNADLVVFGGGTKVTVLGGGGGSCAAAEQKLISEEDLNGAAHHHHHH,9.69e+06 M⁻¹,103 nM,0.00535 s⁻¹,51800 M⁻¹ s⁻¹,1.24e+07 M⁻¹,80.6 nM,0.0038 s⁻¹,47100 M⁻¹ s⁻¹,9.62e+06 M⁻¹,104 nM,0.00449 s⁻¹,43200 M⁻¹ s⁻¹,,,,,,,,,
"purified dimer sFv5AF-Cys (scFv, also called 5Afcys Dimer; sFv5AF-Cys dimer) scFv: DYKAKQVQLVQSGGGVVQPGRSLRLSCAASGFTFSSYAMHWVRQAPGKGLEWVSAISGSGGSTYYADSVKGRFTISRDNAKNSLYLQMNSLRAEDTAVYYCARDTRGYFDLWGRGTLVTVSSGGGGSGGGGSGGGGSSELTQDPAMSVALGQTVRITCQGDSLRKYHASWYQQRPRQAPRLVVYGKNERPSGIPERFSGSTSGDTASLTISGLQAEDEADYYCHSRDSNADLVVFGGGTKVTVLGGGGGSCAAAEQKLISEEDLNGAAHHHHHH",,,,,,,,,,,,,,,,,4.61e+08 M⁻¹,2.17 nM,0.00244 s⁻¹,1.12e+06 M⁻¹ s⁻¹,Ka [7]: 5.01e+08 M⁻¹; Kd [7]: 2 nM; koff [7]: 0.00341 s⁻¹; kon [7]: 1.71e+06 M⁻¹ s⁻¹; Ka [8]: 5.02e+08 M⁻¹; Kd [8]: 1.99 nM; koff [8]: 0.00217 s⁻¹; kon [8]: 1.09e+06 M⁻¹ s⁻¹; fold difference in affinity against the purified monomer [9]: ~3 fold; fold difference in affinity against the purified monomer [10]: ~3 fold; fold difference in affinity against the purified monomer [11]: ~3 fold
single chain antibody sFv5A (scFv) scFv: QVQLQQSGGGVVQPGRSLRLSCAASGFTFSSYAMHWVRQAPGKGLEWVSAISGSGGSTYYADSVKGRFTISRDNAKNSLYLQMNSLRAEDTAVYYCARDTRGYFDLWGRGTLVTVSSGGGGSGGGGSGGGGSSELTQDPAMSVALGQTVRITCQGDSLRKYHASWYQQRPRQAPRLVVYGKNERPSGIPERFSGSTSGDTASLTISGLQAEDEADYYCHSRDSNADLVVFGGGTKVTVLGAAAEQKLISEEDLNGAAHHHHHH,1.93e+07 M⁻¹,51.8 nM,0.00397 s⁻¹,76700 M⁻¹ s⁻¹,2.95e+07 M⁻¹,33.9 nM,0.00262 s⁻¹,77300 M⁻¹ s⁻¹,2.16e+07 M⁻¹,46.3 nM,0.00337 s⁻¹,72900 M⁻¹ s⁻¹,6.31e+06 M⁻¹,158 nM,0.00464 s⁻¹,29300 M⁻¹ s⁻¹,,,,,
